Tests used:
[1] = target: T1, human FcγRIIIb (NA1) CD16B (human, UniProt O75015); experiment: SPR
T1 chain: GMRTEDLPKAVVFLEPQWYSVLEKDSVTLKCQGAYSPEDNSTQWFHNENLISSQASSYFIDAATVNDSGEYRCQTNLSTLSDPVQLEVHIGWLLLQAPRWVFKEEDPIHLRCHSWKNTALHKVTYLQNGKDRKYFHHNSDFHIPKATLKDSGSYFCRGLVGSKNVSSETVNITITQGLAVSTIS

[2] = target: T2, cynomolgus FcγRIIa (CD32A) (cynomolgus); experiment: SPR
T2 chain: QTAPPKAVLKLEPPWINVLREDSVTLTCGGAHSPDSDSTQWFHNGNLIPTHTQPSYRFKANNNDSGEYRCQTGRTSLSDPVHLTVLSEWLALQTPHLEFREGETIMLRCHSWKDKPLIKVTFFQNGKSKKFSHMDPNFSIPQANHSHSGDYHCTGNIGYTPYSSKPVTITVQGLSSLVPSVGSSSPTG

human FcγRI (CD64) = target: T3, human FcγRI (CD64) (human, UniProt P12314); experiment: SPR
T3 chain: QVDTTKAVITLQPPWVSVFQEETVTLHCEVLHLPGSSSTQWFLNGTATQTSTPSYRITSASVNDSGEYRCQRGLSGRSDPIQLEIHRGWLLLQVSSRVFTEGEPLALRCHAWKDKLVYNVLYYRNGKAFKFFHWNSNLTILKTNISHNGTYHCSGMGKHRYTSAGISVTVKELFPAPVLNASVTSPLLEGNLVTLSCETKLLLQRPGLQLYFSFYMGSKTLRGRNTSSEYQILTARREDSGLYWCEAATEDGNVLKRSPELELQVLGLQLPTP

human FcγRIIa (CD32A) = target: T4, human FcγRIIa (CD32A) (human, UniProt P12318); experiment: SPR
T4 chain: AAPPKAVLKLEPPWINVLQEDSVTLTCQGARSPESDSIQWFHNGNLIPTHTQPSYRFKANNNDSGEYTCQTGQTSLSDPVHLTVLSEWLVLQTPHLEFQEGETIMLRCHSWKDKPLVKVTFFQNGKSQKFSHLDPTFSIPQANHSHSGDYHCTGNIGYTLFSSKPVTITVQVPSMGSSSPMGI

human FcγRIIb (CD32B) = target: T5, human FcγRIIb (CD32B) (human, UniProt P31994); experiment: SPR
T5 chain: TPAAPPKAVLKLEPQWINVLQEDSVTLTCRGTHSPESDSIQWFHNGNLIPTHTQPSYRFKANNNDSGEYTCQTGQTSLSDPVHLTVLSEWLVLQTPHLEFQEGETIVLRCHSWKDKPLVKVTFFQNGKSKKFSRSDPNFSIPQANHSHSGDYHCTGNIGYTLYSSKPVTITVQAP

murine FcγRIV (CD16-2) = target: T6, murine FcγRIV (CD16-2) (mouse, UniProt A0A0B4J1G0); experiment: SPR
T6 chain: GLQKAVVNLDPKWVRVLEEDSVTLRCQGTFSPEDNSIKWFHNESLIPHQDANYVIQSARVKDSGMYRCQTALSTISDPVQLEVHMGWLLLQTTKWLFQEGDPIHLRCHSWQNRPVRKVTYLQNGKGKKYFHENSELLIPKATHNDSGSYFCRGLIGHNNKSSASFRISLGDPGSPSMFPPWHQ

murine FcγRI = target: T7, murine FcγRI (mouse, UniProt P26151); experiment: SPR
T7 chain: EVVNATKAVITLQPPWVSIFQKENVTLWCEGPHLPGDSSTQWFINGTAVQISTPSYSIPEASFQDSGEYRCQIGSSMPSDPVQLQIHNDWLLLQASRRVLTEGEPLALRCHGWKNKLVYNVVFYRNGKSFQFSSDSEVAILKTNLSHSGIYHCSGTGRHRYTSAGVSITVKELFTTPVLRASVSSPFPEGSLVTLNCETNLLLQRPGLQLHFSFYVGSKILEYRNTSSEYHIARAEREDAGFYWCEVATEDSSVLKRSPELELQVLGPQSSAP

human FcγRIIc (CD32C) = target: T8, human FcγRIIc (CD32C) (human, UniProt P31995); experiment: SPR
T8 chain: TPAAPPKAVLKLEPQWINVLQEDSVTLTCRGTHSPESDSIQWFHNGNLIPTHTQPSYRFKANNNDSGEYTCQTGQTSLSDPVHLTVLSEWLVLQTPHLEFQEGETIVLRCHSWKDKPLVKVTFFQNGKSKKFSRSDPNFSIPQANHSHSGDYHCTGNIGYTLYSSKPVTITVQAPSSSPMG

murine FcRn = target: T9, murine FcRn (mouse, UniProt Q61559); experiment: SPR, pH 6.0
T9 chain 1: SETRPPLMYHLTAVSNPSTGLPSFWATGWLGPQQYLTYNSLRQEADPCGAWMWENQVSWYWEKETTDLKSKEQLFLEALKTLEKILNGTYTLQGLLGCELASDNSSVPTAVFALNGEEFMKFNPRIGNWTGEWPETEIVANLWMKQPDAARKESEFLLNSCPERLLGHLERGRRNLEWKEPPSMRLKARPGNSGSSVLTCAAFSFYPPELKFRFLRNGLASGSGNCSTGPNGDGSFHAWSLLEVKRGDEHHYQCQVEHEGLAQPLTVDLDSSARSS
T9 chain 2: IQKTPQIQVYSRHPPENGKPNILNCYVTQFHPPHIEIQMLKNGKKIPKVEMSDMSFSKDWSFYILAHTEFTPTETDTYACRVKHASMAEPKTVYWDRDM

murine FcγRIIb = target: T10, murine FcγRIIb (mouse, UniProt P08101); experiment: SPR
T10 chain: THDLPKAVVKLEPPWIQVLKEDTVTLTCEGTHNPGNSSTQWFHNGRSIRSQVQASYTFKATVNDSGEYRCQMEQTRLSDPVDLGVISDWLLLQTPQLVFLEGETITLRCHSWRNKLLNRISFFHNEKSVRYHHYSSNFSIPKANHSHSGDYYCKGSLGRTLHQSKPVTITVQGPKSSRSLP

human FcRn = human FcRn (human, UniProt P55899); experiment: SPR, pH 6.0
murine FcγRIII = target: T11, murine FcγRIII (mouse, UniProt P08508); experiment: SPR
T11 chain: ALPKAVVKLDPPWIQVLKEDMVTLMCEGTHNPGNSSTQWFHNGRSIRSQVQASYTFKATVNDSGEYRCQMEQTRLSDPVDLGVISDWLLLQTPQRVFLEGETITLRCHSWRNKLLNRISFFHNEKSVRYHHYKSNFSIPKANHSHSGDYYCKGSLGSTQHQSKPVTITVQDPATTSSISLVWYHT

cynomolgus FcRn = target: T12, cynomolgus FcRn (cynomolgus, UniProt Q8SPV9); experiment: SPR, pH 6.0
T12 chain 1: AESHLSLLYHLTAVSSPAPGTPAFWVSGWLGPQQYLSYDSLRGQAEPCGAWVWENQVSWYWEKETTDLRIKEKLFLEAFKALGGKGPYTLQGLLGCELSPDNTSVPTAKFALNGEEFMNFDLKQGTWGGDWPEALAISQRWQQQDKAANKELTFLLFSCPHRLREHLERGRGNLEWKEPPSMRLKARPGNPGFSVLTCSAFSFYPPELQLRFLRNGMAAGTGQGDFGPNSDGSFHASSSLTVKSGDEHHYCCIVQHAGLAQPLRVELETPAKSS
T12 chain 2: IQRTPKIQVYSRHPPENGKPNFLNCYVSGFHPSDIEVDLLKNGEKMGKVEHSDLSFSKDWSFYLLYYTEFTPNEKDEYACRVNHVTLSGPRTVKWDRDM

EGFRvIII (CHO cells) = EGFRvIII (CHO cells) (human); experiment: FACS, CHO cells 37C

| Binder | binding result [1] | binding result [2] | binding result (human FcγRI (CD64)) | binding result (human FcγRIIa (CD32A)) | binding result (human FcγRIIb (CD32B)) | binding result (murine FcγRIV (CD16-2)) | binding result (murine FcγRI) | binding result (human FcγRIIc (CD32C)) | binding result (murine FcRn) | binding result (murine FcγRIIb) | binding result (human FcRn) | binding result (murine FcγRIII) | binding result (cynomolgus FcRn) | Kd (EGFRvIII (CHO cells)) |
| --- | --- | --- | --- | --- | --- | --- | --- | --- | --- | --- | --- | --- | --- | --- |
| EGFR/CD16A tandem diabody (full) (antibody) chain 1: QVQLQESGPGLVKPSETLSLTCTVSGGSVSSGSYYWSWIRQPPGKGLEWIGYIYYSGSTNYNPSLKSRVTISVDTSKNQFSLKLSSVTAADTAVYYCARNPISIPAFDIWGQGTMVTVSSGGSGGSGGSSYVLTQPSSVSVAPGQTATISCGGHNIGSKNVHWYQQRPGQSPVLVIYQDNKRPSGIPERFSGSNSGNTATLTISGTQAMDEADYYCQVWDNYSVLFGGGTKLTVLGGSGGSQVQLVQSGAEVKKPGESLKVSCKASGYTFTSYYMHWVRQAPGQGLEWMGIINPSGGSTSYAQKFQGRVTMTRDTSTSTVYMELSSLRSEDTAVYYCARGSAYYYDFADYWGQGTLVTVSSGGSGGSGGSQPVLTQPPSVSVAPGKTARITCGGNNIGSKSVHWYQQKPGQAPVLVIYYDSDRPSGIPERFSGSNSGNTATLTISRVEAGDEADYYCQVWDTSSDHVLFGGGTKLTVLAAAGSHHHHHH chain 2: QVQLQESGPGLVKPSETLSLTCTVSGGSVSSGSYYWSWIRQPPGKGLEWIGYIYYSGSTNYNPSLKSRVTISVDTSKNQFSLKLSSVTAADTAVYYCARNPISIPAFDIWGQGTMVTVSSGGSGGSGGSSYVLTQPSSVSVAPGQTATISCGGHNIGSKNVHWYQQRPGQSPVLVIYQDNKRPSGIPERFSGSNSGNTATLTISGTQAMDEADYYCQVWDNYSVLFGGGTKLTVLGGSGGSQVQLVQSGAEVKKPGESLKVSCKASGYTFTSYYMHWVRQAPGQGLEWMGIINPSGGSTSYAQKFQGRVTMTRDTSTSTVYMELSSLRSEDTAVYYCARGSAYYYDFADYWGQGTLVTVSSGGSGGSGGSQPVLTQPPSVSVAPGKTARITCGGNNIGSKSVHWYQQKPGQAPVLVIYYDSDRPSGIPERFSGSNSGNTATLTISRVEAGDEADYYCQVWDTSSDHVLFGGGTKLTVLAAAGSHHHHHH | no binding | no binding | no binding | no binding | no binding | no binding | no binding | no binding | no binding | no binding | no binding | no binding | no binding |  |
| Tandem diabody EGFR arm (antibody, V domains shown) VH: QVQLQESGPGLVKPSETLSLTCTVSGGSVSSGSYYWSWIRQPPGKGLEWIGYIYYSGSTNYNPSLKSRVTISVDTSKNQFSLKLSSVTAADTAVYYCARNPISIPAFDIWGQGTMVTVSS VL: QPVLTQPPSVSVAPGKTARITCGGNNIGSKSVHWYQQKPGQAPVLVIYYDSDRPSGIPERFSGSNSGNTATLTISRVEAGDEADYYCQVWDTSSDHVLFGGGTKLTVL |  |  |  |  |  |  |  |  |  |  |  |  |  | 0.5 nM |

Source: patent publication US20230190900 (published 2023)
